Data taken from a protein production outcome set (Wang et al. 2014).

Assay: label from the status in PepcDB records

Sequence	protein production
MAFLTNDDVVLICDKNYDCPTKIQSVRQKDTTCVAFRPWSQTCEFAVGCAAGICLWSDSRRLNANRNIRRMMGTHHLQVLQDKGHNYVTSMQWNEDGTILVTAAFGSSHIMLWEPDCQQKIRLIPNPKSLGSFSLLRFSPDFHVLFCASCDAGASLCQLNRSKWKLKQILGQQRIQSAVWTTCGSTLLYACYGSTRVYSCTSDGEDSVFLRPQSIWRVQLIMDLQLVTTCAGQRLCCGEPQCLAMDPLGIYMASIFKEQSFVLLCILHTSRWGNVKLLPVEFIYCDMDGDQYPAYISFGVLKAEIRFLIIAWNTGHFQRYDITAQCFRDAQLYHNIN	failed
MAFVVNGNEYNLAYYLTDEIYPKWATFIQSISLPQDEKASLFATNQEACRKDVERAFGVLQARFAIVKHPALIWDKIKIGNIMRACIILHNMIVEDERDGYTQYDVSDFAHPESASSSQVDFTYSTDMPSNLGNMMATRTRLRDRTKHEHLKADLVEHIWQKFGPIQA	failed
MAGAITHDHAAAAQGRQGGPLIVTEDVELLDDLLRLCAAAGARPEVHHTVPDGRGTWEAAPLVLVGDDAARRVRGAARRRGVVLVGRDQDDSGVWRRAVEIGADHVLLLPDGEQWLVDRIADVAEGVGRPALTVGVIGGRGGAGASTLACALAVTSARQGRRTLLVDADPLGGGLDVLLGGETAEGLRWPAFAASRGRVGGGALEESLPELHALRVLSWDRGDAVAVPPQAVRAVLAAARRRGGAVVVDLPRRVDEGAAEALAQVDLGVLVVPAELRAIAAAARVASAAGMVLGDLRVAVRGPYAPGLDDREVARLLGLPLLGEVPAEPPVPDGGVPPGGAARGPLARFCAVFWDRALVEAGGVLEHHHHHH	failed
MAGATDQRRQEVLRAIVADYIASQEPVGSKALLERHNLKVSSATIRNDMAVLESEGYIVQQHASSGRIPTEKAYRTFVDSINDIKPLSVAERRAILGFLERGVDLEDVLKRSVQLLSQLTRQAAVIQLPNLNVSRVKHCE	failed
MAGEFRLLSHLCSRGSKVGELAQDTRTSLKTSWYLLGPAFVAAIAYVDPGNVAANVSSGAQFGYLLLWVIVAANVMAALVQYLSAKLGLVTGRSLPEAIGKRMGRPARLAYWAQAEIVAMATDVAEVIGGAIALRIMFNLPLPIGGIITGVVSLLLLTIQDRRGQRLFERVITALLLVIAIGFTASFFVVTPPPNAVLGGLAPRFQGTESVLLAAAIMGATVMPHAVYLHSGLARDRHGHPDPGPQRRRLLRVTRWDVGLAMLIAGGVNAAMLLVAALNMRGRGDTASIEGAYHAVHDTLGATIAVLFAVGLLASGLASSSVGAYAGAMIMQGLLHWSVPMLVRRLITLGPALAILTLGFDPTRTLVLSQVVLSFGIPFAVLPLVKLTGSPAVMGGDTNHRATTWVGWVVAVMVSLLNVMLIYLTVTG	failed
MAGGPPNTKAEMEMSLAEELNHGRQGENQEHLVIAEMMELGSRSRGASQKKQKLEQKAAGSASAKRVWNMTATRPKKMGSQLPKPRMLRESGHGDAHLQEYAGNFQGIRFHYDRNPGTDAVAQTSLEEFNVLEMEVMRRQLYAVNRRLRALEEQGATWRHRETLIIAVLVSASIANLWLWMNQ	failed
MAGKQQERVNVEGHELTLTNLNKIIYPETGTTKAEVLEYYAAVAPFLIPAAANRPVTRKRWVNGVGTAENPGQVFFQKNLEDSAPKWIPRAAIQHSDHTNVYPMVNNLATLTWMAQIASLEIHVPQWQVDPSGKPLRPDRFVLDLDPGPGAGLPECVEVAKLARSILQDMGMDPVPVTSGSKGIHLYTGLDGTLKSEQVSAFAKELARALESDHPELVVSDMKKSLRHGKVLVDWSQNSGNKTTIVPYSLRGKAHPTVAAPRTWRELSSPSLEHLDYVAVMKRVKTGKDHFAPISERHLPPHGEDENDDDGTAGSSSGTGRSRERVVTVENRLAKYVGMRDPGKTPEPFPSSSAVSASPQSAGSSSDQPKPGDPPPPGGIFVIQEHHARRYHLDLRLEHHGVLASWALPRGIPETPDRNNLAVHTEDHPMEYANFAGVIPKGEYGAGTMTIWDRGEYTCEKWRDGKEVIATLTGEPGGGLGGTKRFALINTGQNWLIHLMKEQPGGRRGTQPAANAAAPKSAPAQPQPQPMPNYSPMLATSGTTADLRGDDWLYELKWDGIRAIITGTESRIRLMSRNGNDLTAAYPELTDRACWPDGDFVADGEIVALGKGSRPDFGRLQLRMNLVKAADIERARATVPVQLMLFDLLYDDGTDLSGLPFHERRERLSGFAERWRVGCPLHLSAVLDHDVEDLMTSAAELGLEGVMAKKADSRYVIGRRSRSWIKLKLEQSQEVVVGGWRPGAGARAGTFGALLLGIPDGDKLHYVGRVGSGFKDWQLRDIMEKLEPLAIVESPFADIPREDAAGATWVSPELVAEVTFGEWTGPGRLRHPVWRGWRPDKSAGEVTLAGS	failed
MAGLAISPPLGLSFSSRTRNPKPTSFLSHNQRNPIRRIVSALQSPYGDSLKAGLSSNVSGSPIKIDNKAPRFGVIEAKKGNPPVMPSVMTPGGPLDLSSVLFRNRIIFIGQPINAQVAQRVISQLVTLASIDDKSDILMYLNCPGGSTYSVLAIYDCMSWIKPKVGTVAFGVAASQGALLLAGGEKGMRYAMPNTRVMIHQPQTGCGGHVEDVRRQVNEAIEARQKIDRMYAAFTGQPLEKVQQYTERDRFLSASEALEFGLIDGLLETEY	not failed
MAGLFTPKDAAMNIAIVTINQENAAIASWLAAQDFSGCTLAHWQIEPQPVVAEQVLDAMVEQWQRTPADVVLFPPGTFGDELSTRLAWRLHGASICQVTSLDIPTVSMRKSHWGNALTATLQTEKRPLCLSLARQAGAAKNATLPSGMQQLNIVPGALPDWLVSTEDLKNVSRDPLAEARRVLVVGQGGEADNQEIVMLAEKLGAEVGYSRARVMNGGVDAEKVIGISGHLLAPEVCIVVGASGAAALMAGVRNSKFMVAINHDASAAVFSQADIGVVDDWKVVLEALVTNIHAEYQ	failed
MAGLINKIGDALHIGGGNKEGEHKKEEEHKKHVDEHKSGEHKEGIVDKIKDKIHGGEGKSHDGEGKSHDGEKKKKKDKKEKKHHDDGHHSSSSDSDSD	failed
MAGLLSGLPMTSALVMLFLSLEQGAVFASMAVPGALAGLAAIQATYLFYFLVTRRVSAVAGCVLALALYGATAFLMNLSGSLALSILFTLLMVALIIVATSKQTPPAAAPYVALPRWVIPMRMLTATLLLLAITASATWLGPVVSGLLAPIPVIAWPLAVFVHVQGGRYELAAIIRGNAIGAVGVLSFYLTLRYSLLQWGALLSITTAVLLAVVVTAVLARLLAKR	failed
MAGQTEQVLNGVLEDIEHGRLGPGDLLEEAALTERHGVSRTPVREALIQLETQGLIRRLPRKGAVVFKPTLEEFLAILEVHARLEGQAAGLAARRMNATQAAELEAVVAACEAHARDKGDGDPFGYYRLNLRFHETVALGAGNPYLVEMIKTHARKLLAYYRARYSYPGSIPASAREHRQIATLIFDRRREEAEAAMIRHVQFDQVTVMDLLAALG	failed
MAGRQPGGAAMKALLHGIAEGNGRTLRNLLGLLIFIGGGYLLGRHALLLAELNLPAPIVLALKGGLLCAFGTALGAMPVLVVKTMPARLSDALLGFGAGVMLSATAFSLIMPALSAAGDLGYSKFGAGFLVSFGLAVGVMGLFILGRLMPDVHPGCEGAPLSGGIPPRILLFVTAIVLHNIPEGMAVGVSAGAGLDEANGLALGIALQDVPEGLVVALVLAGVGMSRFKAMLVGAASGLVEPLFAVLCAWLVGLSALLLPWGLAAAAGAMLFVVTHEIIPESHRQGHAAEATLGLVFGFCLMMVLDTALG	failed
MAGSHAGTLRVLQAVDTELTADSVEWCPVEGYQHLLACGTYQLRAPRDQPALDGSEPQVRLGRLYLFSFSEHNTAKPLLEVQRRDSSAVLDMKWCHIPVSGHVLLGLANASGSIGLLRLMECENNSYTLQPISSLALDENCLSLSMDWSTGKSVRAREQPLKIISSDSKGQLHLLMVNEGTAELQLVASWPAHHFEAWIAAFNYWQTELVYSGGDDCLLRGWDTRMLGTPVFTSKRHCMGVCSIQSSPHQEHILATGSYDEHVLLWDTRNIRQPLADVPVQGGVWRLKWHPVHHHLLLAACMHNGFKILNCQKAIEEKQDITVLTSHEMPNSLVYGADWSWLFHSMKPTPTWFFDQNDMGVKAADHSSLKVTEEPPIHSQEQTMDRQVEGPANAHTRAELKASLLPLTEDMKNSKDCSSSSVKTRDLSHCSGGQSFDNSLLATCSFYDHVLHLWKWETNQARTLCSGTGCDLGSADH	failed
